Experimental findings from patent US20140011196 are described below.

Common to all, as to assay: cleavage_in_vitro
For data set [1], the target named is T1, TaqI restriction endonuclease (Thermus aquaticus) (UniProt P14386).
T1 sequence: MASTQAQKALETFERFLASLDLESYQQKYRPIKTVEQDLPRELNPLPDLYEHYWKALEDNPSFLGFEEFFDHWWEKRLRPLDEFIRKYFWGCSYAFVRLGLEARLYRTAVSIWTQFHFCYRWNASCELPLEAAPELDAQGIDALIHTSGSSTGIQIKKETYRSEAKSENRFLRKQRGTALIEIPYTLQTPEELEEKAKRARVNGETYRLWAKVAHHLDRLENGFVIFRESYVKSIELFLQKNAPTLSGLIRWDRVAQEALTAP
The conditions noted are these: 65 C.

Data set [2] concerns T2, HpyF30I restriction endonuclease (Helicobacter pylori RFL30).
T2 sequence: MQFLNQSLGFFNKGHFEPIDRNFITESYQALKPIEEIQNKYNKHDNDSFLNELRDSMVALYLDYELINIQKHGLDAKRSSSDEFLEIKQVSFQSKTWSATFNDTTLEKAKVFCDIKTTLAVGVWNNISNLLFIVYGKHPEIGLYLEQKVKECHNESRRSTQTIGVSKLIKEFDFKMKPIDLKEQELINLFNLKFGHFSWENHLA

In data set [3] the test system is PaeR7I restriction endonuclease.
[4] abbreviates: about 50% 5mC at the TCGA site, partial, site about 50% methylated.

As for lambda DNA (dam-), the activity is 0.06 % undigested in data set [1] (TaqI buffer, qPCR) and 0.6 % undigested in data set [2] (SdaI buffer, 15 mM Mg acetate, 37 C, qPCR).

130 bp lambda PCR fragment C: the activity in data set [1] (with Jurkat genomic DNA) was determined as 0.7 % undigested; in data set [2] (with Jurkat genomic DNA, SdaI buffer, 37 C), 7 % undigested.

Turning to 130 bp lambda PCR fragment m5C, the activity in data set [1] (5mC in both strands, with Jurkat genomic DNA) was found to be 0.7 % undigested; in data set [2] (5mC in both strands, with Jurkat genomic DNA, SdaI buffer, 37 C), 100 % undigested.

As to RASSFA1 promoter region, the activity in data set [3] (setting [4]) was 50 % undigested; in data set [1] (about 50% 5mC at the TCGA site, qPCR), 0.8 % undigested; in data set [2] (setting [4]), 50 % undigested.

For the substance DAPK1 promoter region, the activity in data set [3] (buffer 4, 37 C, qPCR) is 0.8 % undigested; in data set [1] (qPCR), 0.7 % undigested; in data set [2] (SdaI buffer, 37 C, qPCR) it was 2 % undigested.

As for lambda DNA (dam-) M.SssI methylated, the activity in data set [1] (5mC at CpG, both strands, TaqI buffer, qPCR) turned out to be 0.2 % undigested; in data set [2] (5mC at CpG, both strands, SdaI buffer, 37 C, qPCR), 100 % undigested.
